The term EC50 denotes the midpoint of the concentration-response curve. Lower therefore signals higher potency in that assay. For orientation: Kd means the constant that tells how readily two partners part at equilibrium. The low end stands for tighter binding, the high end for weaker binding. Usually koff stands for the first-order rate constant of dissociation. Higher therefore signals a short-lived complex. Broadly, the kon is the rate constant with which the complex forms. Higher therefore signals faster complex formation. As usually defined, the IC50 is the concentration that gives 50% inhibition. Low values mean greater potency, high ones weaker potency.

“And” between values parts separate entries of the source, which are not always exact repeats. Identical values can stand only once.

Consider five molecules from US20200399385A1 (Bristol-Myers Squibb, published 2020).

Assay [1] has as its target T1, human OX40 on cells (human, UniProt P43489 29-277).
T1 sequence: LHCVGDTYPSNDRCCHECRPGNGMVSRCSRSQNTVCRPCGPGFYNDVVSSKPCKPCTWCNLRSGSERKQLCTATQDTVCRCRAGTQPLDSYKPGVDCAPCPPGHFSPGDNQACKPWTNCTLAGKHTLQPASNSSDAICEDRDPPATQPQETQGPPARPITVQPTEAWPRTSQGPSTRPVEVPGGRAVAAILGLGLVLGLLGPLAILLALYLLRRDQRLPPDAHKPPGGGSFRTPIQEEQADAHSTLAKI
Briefly: cell-based or functional assay.

The target in assay [2] is T1, human OX40 on cells. Briefly: FACS, activated human T cells; mean ± SD, n=3. The method, then: Cells were activated for several days before the binding assay in order to induce OX40 expression. Briefly, PBMCs were cultured for three or four days with magnetic beads coated with anti-human CD3 plus anti-human CD28, in the presence of recombinant human IL-2. On the day of the assay, the beads were removed and the cells stained with a titration of each anti-OX40 antibody. Bound antibodies were detected with a fluorescently conjugated anti-human IgG polyclonal secondary antibody, and the cells were co-stained for CD4 and CD25 to detect activated CD4 T cells. The fluorescence intensity of the staining was measured using a FACSCanto II flow cytometer (Becton Dickinson). The geometric mean fluorescence intensity (GMFI) or median fluorescence intensity (MedFI) of anti-OX40 antibody staining was calculated for the CD4+CD25+ population (FACSDiva software). EC₅₀s for antibody binding were calculated using GraphPad Prism software.
(In general: A flow cytometer gives signals particle by particle.)

Assay [3] concerns the target T1, human OX40 on cells. Briefly: FACS, blocking of OX40L-His (0.2 µg/mL) binding to hOX40-293 cells. The procedure: Briefly, 293 cells stably transfected with human OX40 were first pre-incubated with varying concentrations of anti-OX40 antibodies. […] The fluorescence intensity of the staining was measured using a FACSCanto II flow cytometer (Becton Dickinson).
The target of assay [4] is T2, his-tagged soluble human OX40 (huOX40-6xhis) (human, UniProt P43489 29-214).
T2 construct: made in-house; also called Human-OX40-6XHIS; hOX40; not shown: hexahistidine tag
T2 sequence: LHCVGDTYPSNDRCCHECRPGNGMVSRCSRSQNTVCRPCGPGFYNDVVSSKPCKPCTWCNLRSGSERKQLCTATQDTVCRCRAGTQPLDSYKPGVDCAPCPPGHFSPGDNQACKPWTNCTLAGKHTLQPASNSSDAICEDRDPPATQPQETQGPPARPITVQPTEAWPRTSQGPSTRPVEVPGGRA
In words: SPR, mAb captured on anti-human CH1, OX40-6XHIS analyte, 1:1 fit. The procedure:
The affinity of several OX40 antibodies for soluble human OX40 was tested by SPR analysis. […] Human-OX40-6XHIS antigen in either a single concentration of 400 nM or a 1:2 serial dilution from 400 nM was used. Experiments were carried out on BIACORE® T200 or BIACORE® 3000 SPR instruments. Data was fit to a 1:1 model.
A general note: In SPR one partner is held on a chip, and binding of the other changes the refractive index at the surface.

Assay [5] addresses T1, human OX40 on cells. In words: FACS competition on HT1080-hOX40 cells against APC-OX40.1 (FL2 MFI); the table gives no unit, axis 'Ab conc nM'. The procedure:
(§1) This experiment was performed to test the cross-blocking properties of various anti-OX40 antibodies to assess binding specificities. […] Cells were washed and if necessary further incubated in the presence of streptavidin-APC conjugate under the same conditions. After the final wash, cells were analyzed on a FACSCanto flow cytometer (BD Bioscience, San Jose, Calif.). Mean fluorescence intensity (MFI) signal was proportional to bound conjugated antibody.

Assay [6] has as its target T1, human OX40 on cells. In words: FACS competition on hOX40-293 cells against biotin-OX40.5 (spike biotOX.5 @ 0.4 ug/mL, streptavidin-APC); partial inhibition, FL4-MFI falls from about 8700 to about 6400; the table gives no unit, axis in nM. The procedure:
as §1

Assay [7] has as its target T3, cynomolgus OX40 on cells (cynomolgus, UniProt P43489 29-277 (human entry)).
T3 construct: also called cynoOX40-CHO
T3 chain: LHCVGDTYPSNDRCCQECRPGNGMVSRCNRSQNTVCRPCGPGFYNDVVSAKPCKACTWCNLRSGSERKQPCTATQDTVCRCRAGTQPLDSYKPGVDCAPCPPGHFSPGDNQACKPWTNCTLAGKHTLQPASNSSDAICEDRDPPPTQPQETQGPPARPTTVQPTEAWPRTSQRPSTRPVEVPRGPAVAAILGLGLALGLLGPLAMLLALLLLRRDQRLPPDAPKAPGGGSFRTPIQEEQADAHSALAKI
In words: FACS, activated cyno T cells; mean ± SD, n=4. The procedure:
(§2) Briefly, cells were activated for several days before the binding assay in order to induce OX40 expression. Total leukocytes were isolated from cynomolgus macaque peripheral blood by lysis of red blood cells using an ammonium chloride buffer. The leukocytes were then cultured for four to five days with in flasks pre-coated with anti-human CD3 plus anti-human CD28 antibodies that cross-react with cynomolgus macaque, in the presence of recombinant human IL-2, in order to expand and activate T cells. On the day of the assay, the cells were harvested and stained with a titration of each anti-OX40 antibody. Bound antibodies were detected with a fluorescently conjugated anti-human IgG polyclonal secondary antibody, and the cells were co-stained for CD4 and CD25 to detect activated CD4 T cells. The fluorescence intensity of the staining was measured using a FACSCanto II flow cytometer (Becton Dickinson). The geometric mean fluorescence intensity (GMFI) or median fluorescence intensity (MedFI) of anti-OX40 antibody staining was calculated for the CD4+CD25+ population (FACSDiva software). Dose-response curves were generated and EC50s for antibody binding were calculated using GraphPad Prism software.

The target of assay [8] is T1, human OX40 on cells. Briefly: FACS competition on hOX40-293 cells against biotin-OX40.5 (spike biotOX.5 @ 0.4 ug/mL, streptavidin-APC); FL4-MFI falls from about 8700 to about 3800; the table gives no unit, axis in nM. The procedure: as §1
The target of assay [9] is T3, cynomolgus OX40 on cells. In words: FACS, activated cyno CD4 T cells. The procedure:
as §2
The same experiment was performed with anti-OX40 antibodies with variable region substitutions.

Assay [10] concerns the target T1, human OX40 on cells. Briefly: FACS competition on hOX40-293 cells against biotin-OX40.4 (spike biotOX.4 @ 0.4 ug/mL, streptavidin-APC); partial inhibition, FL4-MFI falls from about 12700 to about 8800 at about 130 nM; the table gives no unit, axis in nM. The procedure:
as §1

Assay [11] has as its target T1, human OX40 on cells. Briefly: cell-based or functional assay. The source holds these as a separate data set.
Assay [12] concerns the target T1, human OX40 on cells. In words: FACS competition on hOX40-293 cells against biotin-OX40.4 (spike biotOX.4 @ 0.4 ug/mL, streptavidin-APC); partial inhibition, FL4-MFI falls from about 12700 to about 6000; the table gives no unit, axis in nM. The method, then: as §1
Assay [13] concerns the target T1, human OX40 on cells. In words: FACS competition on hOX40-293 cells against biotin-OX40.5 (spike biotOX.5 @ 0.4 ug/mL, streptavidin-APC); FL4-MFI falls from about 8700 to about 2900; the table gives no unit, axis in nM. The procedure:
as §1

Assay [14] concerns the target T1, human OX40 on cells. Briefly: FACS, activated human T cells; mean ± SD, n=5.
In assay [15] the target is T3, cynomolgus OX40 on cells. In words: FACS, activated cyno T cells; mean ± SD, n=3. The procedure:
as §2

The target of assay [16] is T1, human OX40 on cells. In words: immunohistochemistry, HT1080/huOX40 cells. The source says: Fresh, frozen and/or OCT-embedded human tissues were purchased from multiple commercial tissue networks/vendors (Asterand Inc. Detroit, Mich.; Cooperative Human Tissue Network, Philadelphia, Pa.; ProteoGenex Inc, Culver City, Calif.). […] A nonspecific fluoresceinated human IgG1 was used as isotype control antibody. HT1080 cells stably expressing human OX40 (HT1080/huOX40) and hyperplasic human tonsil tissue sections were used as positive control cells and tissues. […] Stained slides were evaluated under a light microscope.

B1: 3F4 (antibody, V domains shown)
VH: QVQLVQSGAEVKKPGASVKVSCKASGNTFTSYDVNWVRQATGQGLEWMGWMNPNSGNTGYAPKFQGRVTMTRNTSISTAYMELSSLRSEDTAVYYCARIYSSSYNWFDPWGQGTLVTVSS
VL: EIVLTQSPATLSLSPGERATLSCRASQSVSSYLAWYQQKPGQAPRLLIYDASNRATGIPARFSGSGSGTDFTLTISSLEPEDFAVYYCQQRSNWPLTFGGGTKVEIK
notes: also called 3F4.G11.D2; 3F4.G11
As for B1, in the assay with human OX40 on cells [1], the “Proliferation EC50, CD4 T cells + CHO-CD3-CD32A” value (from here on “Proliferation EC50”) was found to be 0.016 nM. In addition, the concentration giving a half-maximal response (EC50) with human OX40 on cells [2] amounted to 0.19 nM; with human OX40 on cells [3], 0.54 nM; in the assay with human OX40 on cells [6], 3.71 nM; with cynomolgus OX40 on cells [7], 0.37 nM. Besides, in assay [4], the Kd came out at 7.13 nM. In assay [4], this molecule came in with a koff of 0.000379 s⁻¹. The same molecule had a kon in [4] of 53100 M⁻¹ s⁻¹. For the same molecule, the IC50 with human OX40 on cells [5] was determined as 0.706 nM.

B2: 20C1 (antibody, V domains shown)
VH: EAQLVQSGGGLVHPGGSLRLSCADSGFTFSSYAMYWVRQAPGKGLEWVSAIDTDGGTFYADSVRGRFTISRDNAKNSLYLQMNGLRAEDMAVYFCARLGEGYFFDYWGQGTLVTVSS
VL: EIVLTQSPATLSLSPGERATLSCRASQSVSSYLAWYQQKPGQAPRLLIYDASNRATGIPARFSGSGSGTDFTLTISSLEPEDFAVYYCQQRSNWPPTFGGGTKVEIK
notes: also called 20C1.F2.D1; 20C1.F2
Turning to B2, the “Proliferation EC50” value in the assay with human OX40 on cells [1] worked out at 0.008 nM. The EC50 stood at 0.1 nM with human OX40 on cells [2]; 0.34 nM in the assay with human OX40 on cells [3]; 6.13 nM with human OX40 on cells [8]; 0.068 nM in the assay with cynomolgus OX40 on cells [9]; 12.1 nM in the assay with human OX40 on cells [10]; 0.17 nM in the assay with cynomolgus OX40 on cells [7]. The molecule further had a Kd in assay [4] of 3.22 nM. Moreover, the koff in assay [4] is 0.000209 s⁻¹. Besides, the kon in assay [4] was 64800 M⁻¹ s⁻¹. In the assay with human OX40 on cells [11], the “IL-2 EC50, SEB PBMC, soluble crosslinker” value lay within 1.3 to 2 nM.

B3: 20B3 (antibody, V domains shown)
VH: EVQLVESGGGLVQPGGSLRLSCAASGFTFSSYDMHWVRQTTGKGLEWVSVIGTAGDTYYPGSVKGRFTISRENAKNSLYLQMNSLRAGDTAVYYCARGGMGNYFDYWGQGTLVTVSS
VL: EIVLTQSPATLSLSPGERATLSCRASQSVSSYLAWYQQKPGQAPRLLIYDASNRATGIPARFSGSGSGTDFTLTISSLEPEDFAVYYCQQRSNWPLTFGGGTKVEIK
notes: also called 20B3.G12.A2; 20B3.G2
With B3, the “Proliferation EC50” value with human OX40 on cells [1] was determined as 0.008 nM. The EC50 with human OX40 on cells [12] is 3.86 nM; in the assay with human OX40 on cells [2], 0.34 nM; with human OX40 on cells [13], 4.54 nM; with human OX40 on cells [3], 0.93 nM; in the assay with cynomolgus OX40 on cells [9] it was 1.4 nM and 1 nM to 1.5 nM (2×); with cynomolgus OX40 on cells [7], 1.18 nM. Further, the Kd in assay [4] is 3.71 nM. In [4], this molecule yielded a koff of 0.000201 s⁻¹. The molecule further had a kon in assay [4] of 54200 M⁻¹ s⁻¹. This molecule displayed an IC50 with human OX40 on cells [5] of 1.17 nM.

B4: OX40.16 (antibody, human IgG1, kappa, V domains shown)
VH: EVQLVQSGGGLVQPGGSLRLSCAGSGFTFSSYAMYWVRQAPGKGLEWVSAIDTDGGTFYADSVRGRFTISRDNAKNSLYLQMNSLRAEDTAVYFCARLGEGYFFDYWGQGTLVTVSS
VL: EIVLTQSPATLSLSPGERATLSCRASQSVSSYLAWYQQKPGQAPRLLIYDASNRATGIPARFSGSGSGTDFTLTISSLEPEDFAVYYCQQRSNWPPTFGGGTKVEIKR
As to B4, the “IFNγ EC50, CD4 T cells + CHO-CD3-CD32A” value with human OX40 on cells [1] stood at 0.044 nM. Moreover, the “Proliferation EC50” value with human OX40 on cells [1] stood at 0.017 nM. For the same molecule, the EC50 in the assay with human OX40 on cells [14] and with cynomolgus OX40 on cells [15] was 0.06 nM in each case. Moreover, the “EC50 (NK92 cell-mediated ADCC, calcein release)” value in the assay with human OX40 on cells [11] was 4 ng/mL.

B5: OX40.20 (antibody, human IgG1, kappa, V domains shown)
VH: EVQLVQSGGGLVQPGGSLRLSCAGSGFTFSSYAMYWVRQAPGKGLEWVSAIDTSGGTFYADSVRGRFTISRDNAKNSLYLQMNSLRAEDTAVYFCARLGEGYFFDYWGQGTLVTVSS
VL: EIVLTQSPATLSLSPGERATLSCRASQSVSSYLAWYQQKPGQAPRLLIYDASNRATGIPARFSGSGSGTDFTLTISSLEPEDFAVYYCQQRSNWPPTFGGGTKVEIKR
As for B5, in the assay with human OX40 on cells [16], the binding result is given as “binds”.
